Positions count from the first letter of the chain named.

The assay deals with T1, CHIKV VLPs (Chikungunya virus, VLP strain not …, UniProt Q5XXP3).
T1 construct: also called CHIKV virus-like particles
Description: MagPlex direct binding assay. Conditions: both partners purified.

T1 sequence (Q5XXP3 whole entry, looked up): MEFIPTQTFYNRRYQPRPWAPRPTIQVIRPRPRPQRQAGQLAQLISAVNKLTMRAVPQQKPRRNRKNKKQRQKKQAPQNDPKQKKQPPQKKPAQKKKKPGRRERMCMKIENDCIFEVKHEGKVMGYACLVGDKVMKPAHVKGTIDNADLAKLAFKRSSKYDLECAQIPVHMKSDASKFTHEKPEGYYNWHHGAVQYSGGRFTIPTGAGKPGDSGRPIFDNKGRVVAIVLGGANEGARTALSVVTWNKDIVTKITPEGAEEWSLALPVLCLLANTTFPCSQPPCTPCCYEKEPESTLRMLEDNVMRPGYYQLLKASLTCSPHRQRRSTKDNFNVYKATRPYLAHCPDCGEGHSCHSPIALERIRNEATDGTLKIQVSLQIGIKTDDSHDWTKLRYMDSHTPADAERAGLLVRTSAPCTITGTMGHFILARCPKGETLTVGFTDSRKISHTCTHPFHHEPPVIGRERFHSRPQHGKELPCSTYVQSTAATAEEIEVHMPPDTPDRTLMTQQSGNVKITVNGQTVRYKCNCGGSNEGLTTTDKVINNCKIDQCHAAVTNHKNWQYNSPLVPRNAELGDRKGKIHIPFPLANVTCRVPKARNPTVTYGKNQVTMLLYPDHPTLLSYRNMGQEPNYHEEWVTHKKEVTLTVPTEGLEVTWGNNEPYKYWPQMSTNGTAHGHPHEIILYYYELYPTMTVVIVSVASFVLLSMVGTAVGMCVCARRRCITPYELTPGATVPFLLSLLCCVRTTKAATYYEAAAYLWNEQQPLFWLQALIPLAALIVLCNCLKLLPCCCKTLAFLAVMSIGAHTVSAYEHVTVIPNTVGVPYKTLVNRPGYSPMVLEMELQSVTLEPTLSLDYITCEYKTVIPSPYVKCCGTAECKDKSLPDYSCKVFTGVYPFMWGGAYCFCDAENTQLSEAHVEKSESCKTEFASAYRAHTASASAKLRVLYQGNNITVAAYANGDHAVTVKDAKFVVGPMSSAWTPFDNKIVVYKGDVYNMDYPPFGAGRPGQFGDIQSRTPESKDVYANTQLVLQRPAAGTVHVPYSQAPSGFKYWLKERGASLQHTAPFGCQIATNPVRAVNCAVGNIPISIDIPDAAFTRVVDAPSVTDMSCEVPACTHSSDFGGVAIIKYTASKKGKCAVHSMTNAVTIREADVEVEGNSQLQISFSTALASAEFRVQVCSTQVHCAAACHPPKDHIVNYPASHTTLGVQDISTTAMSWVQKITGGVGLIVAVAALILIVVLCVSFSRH

B1: CC3-hop (VHH)
VHH: EVQLQASGGGSVQAGGSLRLSCVTSQNLFEYYTMGWYRQVPGSQRERVALINNGGSTVAGSVEGRFTISRDHAKNSVYLQMNYLKPEDSAVYYCRAFGPADYWGQGTQVTVSS
notes: also called CC3 with the hop tail; original CC3-hop
For B1, the binding result is “binds”.

B2: CC3-m3hop (VHH)
VHH: B1 VHH with Q5V, A6E, K85Q
notes: Theoretical pI 6.63
For the molecule B2, the binding result is reported as “binds”.

B3: CC3-m2hop (VHH)
VHH: B1 VHH with Q5V, A6E, G16D, K85Q
notes: Theoretical pI 6.35
Consider B3, for which the binding result is listed as “binds”.

B4: CC3-m5hop (VHH)
VHH: B1 VHH with Q3K
notes: Theoretical pI 8.40
With B4, the binding result is listed as “binds”.

B5: CC3-m7hop (VHH)
VHH: B1 VHH with E1Q, Q3K, E63V
notes: Theoretical pI 9.0
Take B5: the binding result is listed as “binds”.

B6: CC3-m6hop (VHH)
VHH: B1 VHH with E1Q, Q3K
notes: Theoretical pI 8.75
As to B6, the binding result is given as “binds”.

B7: CC3-m8hop (VHH)
VHH: B1 VHH with E1Q, Q3K, E63K
notes: Theoretical pI 9.18; also called variant 8
As to B7, the binding result is given as “binds”.

B8: CC3-m9hop (VHH)
VHH: B1 VHH with E1Q, Q3K, E63K, P86R
notes: Theoretical pI 9.35; also called variant 9
For B8, the binding result is reported as “binds”.

B9: CC3-m4hop (VHH)
VHH: B1 VHH with Q5V, A6E
notes: Theoretical pI 7.04
In the case of B9, the binding result is recorded as “binds”.

These data come from publication PMC7876468 (Frontiers in Medicine, 2021).
